# Assay results as given in patent publication US9273290B2, “Method for producing phosphite dehydrogenase protein and use thereof” (priority 2011, dated 2016).
# “And” between values parts separate entries of the source, which are not always exact repeats. Identical values can stand only once.
# B1: PtxDPst: fusion protein: phosphite dehydrogenase protein of P stutzeri WM88 (SEQ ID NO: 3), C-terminal labeled with a His tag (protein, listed as Pseudomonas stutzeri)
# chain: MLPKLVITHRVHDEILQLLAPHCELMTNQTDSTLTREEILRRCRDAQAMMAFMPDRVDADFLQACPELRVVGCALKGFDNFDVDACTARGVWLTFVPDLLTVPTAELAIGLAVGLGRHLRAADAFVRSGEFQGWQPQFYGTGLDNATVGILGMGAIGLAMADRLQGWGATLQYHEAKALDTQTEQRLGLRQVACSELFASSDFILLALPLNADTQHLVNAELLALVRPGALLVNPCRGSVVDEAAVLAALERGQLGGYAADVFEMEDWARADRPRLIDPALLAHPNTLFTPHIGSAVRAVRLEIERCAAQNIIQVLAGARPINAANRLPKAEPAAC
# modifications: C-terminal His tag
# B2: PtxD4506: fusion protein: phosphite dehydrogenase protein of SEQ ID NO: 1 (from Ralstonia sp. strain 4506), C-terminal labeled with a His tag (protein)
# chain: MKPKVVLTHWVHPEIIELLSASADVIPNTTRETLPRSEVIARAKDADALMAFMPDSIDSAFLEECPKLRVIGAALKGYDNFDVNACTRHGVWLTIVPDLLTIPTAELTIGLLLGLTRHMLEGDRQIRSGHFQGWRPTLYGSGLTGKTLGIIGMGAVGRAIAQRLAGFEMNLLYCDPIPLNAEQEKAWHVQRVTLDELLEKCDYVVPMVPMAAETLHLIDATALAKMKTGSYLINACRGSVVDENAVIAALASGKLAGYAADVFEMEEWIRADRPQAIPKALLDNTAQTFFTPHLGSAVKEVRLEIERQAAMNIIQALAGEKPMGAINQPYPGVKAA
# modifications: C-terminal His tag; Ralstonia sp. 4506
# What was measured:
# [1] = Heat resistance of phosphite dehydrogenase protein (specific activity vs temperature, FIG. 3); type: biochemical; conditions: 0.2 mg/mL in 50 mM MOPS pH 7.4, kept at 10° C. to 60° C.; 1 mM NAD+, 1 mM phosphorous acid
# Experimental: After the ultracentrifugation, a supernatant was collected to be used as a crude extract for measuring phosphite dehydrogenase activity. A total of 1000 μL of a reaction solution was prepared which contained the crude extract (protein amount: 10 μg), NAD^+ (1 mM), phosphorous acid (1 mM), and a MOPS-KOH buffer (20 mM, pH 7.4). A temperature of the reaction solution was elevated to 45° C., so that a reaction was started. A sample was collected, each in an amount of 100 μL, at predetermined time intervals for a predetermined period of time (0 to 180 minutes), and absorbance (340 nm) of each sample was measured. Phosphite dehydrogenase activity was evaluated in terms of an amount of NADH generated by 1 mg of protein per unit time.
# PtxD4506 and PtxDPst, which were purified with use of the HisTrap column in [3. Expression of Phosphite Dehydrogenase Protein Using Escherichia Coli] were examined in terms of heat resistance. The following description discusses how measurement of heat resistance was carried out.
# Each of the purified PtxD4506 and PtxDPst was added to 50 mM of a MOPS buffer (pH 7.4) so as to have a final concentration of 0.2 mg/mL. 100 μL of an enzyme solution thus obtained was supplied to a 1.5-mL tube, and 100 μL of mineral oil was added to the enzyme solution in order to prevent evaporation. A temperature of the tube was maintained at 10° C. to 60° C. for 12 hours. […]
# [2] = Activity of phosphite dehydrogenase protein in the presence of inhibitor (relative OD340); type: biochemical; conditions: no inhibitor = 100.0; for relative value of OD340, average: NaCl, average of experiments
# Experimental: PtxD4506 and PtxDPst, which were purified with use of the HisTrap column in [3. […] An experimental method was based on a method described in the literature “Costas et al., Journal of Biological Chemistry, 2001, 276, 17429-17436.” The experimental method is briefly described below.
# A reaction solution was prepared by mixing 100 μL of 100 mM MOPS-KOH (pH 7.25), 50 μL of 10 mM NAD, 5 μL of 5 mM phosphite, 50 μL of 40 mM inhibitor of various kinds (arsenite, nitrate, sulfate, or NaCl), 294 μL of H2O, and 1 μL of 0.5 mg/mL protein-containing solution (a PtxD4506-containing solution, a PtxDPst-containing solution, or a liquid which contained no protein (negative control)).
# The reaction solution was reacted for 60 minutes. Note that the reaction solution containing the PtxD4506-containing solution was reacted at 45° C., and the reaction solution containing the PtxDPst-containing solution was reacted at 30° C. Subsequently, OD340 was measured. A relative value of OD340 of each sample was calculated relative to 100 of a value of OD340 of the reaction solution containing the liquid which contained no protein (negative control). Note that each experiment was conducted 4 times or more, and an average of relative values obtained in the 4 or 5 experiments was also calculated.
# [3] = Solubility of His-tagged phosphite dehydrogenase forcibly expressed in E. coli (supernatant vs sediment, SDS-PAGE); type: physicochemical, Escherichia coli; conditions: expressed in E. coli Rosetta2 (DE3), disruption buffer 50 mM Tris-HCl pH 7.4, 50 mM NaCl, 0.1% Tween20, centrifuged 15,000 rpm, CBB
# Source text: By a well-known method, the base sequence of SEQ ID NO: 2 or a phosphite dehydrogenase gene (SEQ ID NO: 4) of P stutzeri WM88 was inserted into a plasmid pET21b (produced by Novagen) (an amino acid sequence of the protein encoded by the base sequence of SEQ ID NO: 4 is shown in SEQ ID NO: 3) to prepare (i) an expression vector of a fusion protein (see “PtxD4506” in FIG. 2) in which the C-terminal of the phosphite dehydrogenase protein of SEQ ID NO: 1 is labeled with a His tag or (ii) an expression vector of a fusion protein (see “PtxDPst” in FIG. 2) in which the C-terminal of the phosphite dehydrogenase protein of P stutzeri WM88 is labeled with a His tag.
# A competent cell Rosetta2 (DE3) (produced by Novagen) was transformed by a well-known method with use of each of the expression vectors.
# Transformants thus obtained were inoculated on a 200 mL LB culture medium (containing 10 g of polypeptone, 5 g of yeast extract, and 5 g of NaCl per liter of the culture-medium), and were cultured at 37° C. until OD600 reached 0.5. Subsequently, IPTG (isopropyl thiogalactoside) was added to the culture so as to have a concentration of 1 mM. Then, the culture was incubated for another 3 more hours at 28° C.
# The culture was centrifuged at 6,000 rpm for 15 minutes, and bacteria, which were sediment, were collected. The bacteria were suspended in a buffer for disruption (50 mM Tris-HCl (pH: 7.4), 50 mM NaCl), and a suspension thus obtained was subjected to an ultrasonic treatment, so that the bacteria were disrupted. Subsequently, Tween20 (Registered Trademark) was added to a resultant solution of the disrupted bacteria so as to have a final concentration of 0.1%, and was left still on ice for 15 minutes. Note that the buffer for disruption containing the disrupted bacteria is indicated as “T” in FIG. 2.
# The buffer for disruption containing the disrupted bacteria was centrifuged at 15,000 rpm and 4° C. for 15 minutes. After the centrifugation, a resultant product was divided into a supernatant and sediment. In FIG. 2, the supernatant is indicated as “S” and the sediment is indicated as “I.”
# The buffer for disruption (T) containing the disrupted bacteria, the supernatant (S), and the sediment (I) described above were separated by SDS-PAGE. Subsequently, an acrylamide gel was dyed with CBB stain one (produced by Nacalai), and an amount of the phosphite dehydrogenase protein was measured.
# [4] = Reaction kinetic analysis of phosphite dehydrogenase protein (NADH production rate vs NAD+ concentration); type: biochemical; conditions: ratio PtxD4506 / PtxDPst
# Experimental: PtxD4506 and PtxDPst, which were purified with use of the HisTrap column in [3. Expression of Phosphite Dehydrogenase Protein By Using Escherichia Coli], were compared with each other in terms of reaction rate. The following description discusses how measurement of reaction rates was carried out.
# Reaction rates of respective PtxD4506 and PtxDPst were calculated on the basis of (Reaction formula 1) shown in the section [Background Art].
# Specifically, in the reaction system of (Reaction formula 1), a production rate of NADH was measured with use of 7.5 μg of each of the fusion proteins PtxD4506 and PtxDPst while a concentration of a substrate (NAD^+) was gradually changed from 0.5 μM to 200 μM. […]
# Based on the measured concentration of the substrate (NAD^+) and the measured production rate of NADH, values of Km (μM), Vmax (μmol/min/m), Kcat (min^−1), and Kcat/km were calculated in accordance with a well-known enzyme kinetic method (see, for example, “Fundamental Experiment Method of Proteins and Enzymes (2nd revised edition), Nankodo Co., Ltd.”). Note that the experiment was carried out three times, and values of Km, Vmax, Kcat, and Kcat/km were calculated in each of the experiments. Then, for each of Km, Vmax, Kcat, and Kcat/km, an average of the values calculated in the three experiments was obtained and defined as the value of each of Km, Vmax, Kcat, and Kcat/km. […]
Molecule,temperature at which specific activity is the highest (optimum temperature) [1],"relative value of OD340, average [2]",fusion protein present in the sediment (I) [3],fusion protein present in the supernatant (S) [3],Km relative to that of PtxDPst [4],"relative value of OD340 ([2]; NaCl (50 μL of 40 mM in reaction solution), single experiments 1-5, 60 min, PtxD4506 at 45° C., PtxDPst at 30° C.)"
B1,about 35 °C,89.3,approximately 81.6%,approximately 18.4%,,
B2,about 50 °C,93.6,approximately 8.6%,approximately 91.4%,about a third,92.6 and 96.9 and 95.7 and 95.9 and 87.1
